Assay results as given in the Human Domainome abundance scans (Beltran et al. 2025).
± gives the uncertainty stated by the source.

B1: Arginine-glutamic acid dipeptide repeats protein, residues 502 to 543; numbered along this chain, Q9P2R6 (parent)
chain: LKGYACRHCFTTTSKDWHHGGRENILLCTDCRIHFKKYGELP

Variants of: B1
Experiment: abundance fitness (aPCA) (normalised: wild type 0, dead -1); higher = more abundant; growth selection in yeast, the domain comes from the species named
Conditions: Homo sapiens

First: LKGYACRHCFTTTSKDWHHGNRENILLCTDCRIHFKKYGELP [G21N]
Second: LKGYACRHCFTTTSKDWHHGMRENILLCTDCRIHFKKYGELP [G21M]
The abundance fitness of the first is lower: -0.515 ± 0.14 for the first, -0.291 ± 0.048 for the second.

First: LKGYACRHCFTTTSKDWHHGSRENILLCTDCRIHFKKYGELP [G21S]
Second: LKGYACRHCFTTTSKDWHHGRRENILLCTDCRIHFKKYGELP [G21R]
The abundance fitness of the first is higher: -0.056 ± 0.041 for the first, -0.369 ± 0.038 for the second.

Compared with LKGYACRHCFTTTSKDWHHGVRENILLCTDCRIHFKKYGELP [G21V], LKGYACRHCFTTTSKDWHHGARENILLCTDCRIHFKKYGELP [G21A] is higher in abundance fitness: -0.23 ± 0.037 for the first, -0.142 ± 0.034 for the second.

LKGYACRHCFTTTSKDWHHGYRENILLCTDCRIHFKKYGELP [G21Y] and LKGYACRHCFTTTSKDWHHGDRENILLCTDCRIHFKKYGELP [G21D] are within error of each other in abundance fitness: -0.534 ± 0.26 for the first, -0.236 ± 0.066 for the second.

First: LKGYACRHCFTTTSKDWHHGWRENILLCTDCRIHFKKYGELP [G21W]
Second: LKGYACRHCFTTTSKDWHHGKRENILLCTDCRIHFKKYGELP [G21K]
The abundance fitness of the first is lower: -0.493 ± 0.055 for the first, -0.377 ± 0.058 for the second.

LKGYACRHCFTTTSKDWHHGHRENILLCTDCRIHFKKYGELP [G21H] and LKGYACRHCFTTTSKDWHHGLRENILLCTDCRIHFKKYGELP [G21L] are within error of each other in abundance fitness: -0.044 ± 0.47 for the first, -0.274 ± 0.037 for the second.

LKGYACRHCFTTTSKDWHHGPRENILLCTDCRIHFKKYGELP [G21P] and LKGYACRHCFTTTSKDWHHGQRENILLCTDCRIHFKKYGELP [G21Q] are within error of each other in abundance fitness: -0.24 ± 0.035 for the first, -0.222 ± 0.047 for the second.

Going from LKGYACRHCFTTTSKDWHHGIRENILLCTDCRIHFKKYGELP [G21I] to LKGYACRHCFTTTSKDWHHGERENILLCTDCRIHFKKYGELP [G21E], the abundance fitness rises from -0.517 ± 0.23 to -0.154 ± 0.046.

First: LKGYACRHCFTTTVKDWHHGGRENILLCTDCRIHFKKYGELP [S14V]
Second: LKGYACRHCFTTTWKDWHHGGRENILLCTDCRIHFKKYGELP [S14W]
The abundance fitness of the first is higher: -0.476 ± 0.047 for the first, -0.657 ± 0.058 for the second.

LKGYACRHCFTTTPKDWHHGGRENILLCTDCRIHFKKYGELP [S14P] and LKGYACRHCFTTTMKDWHHGGRENILLCTDCRIHFKKYGELP [S14M] are within error of each other in abundance fitness: -0.361 ± 0.048 for the first, -0.455 ± 0.098 for the second.

Going from LKGYACRHCFTTTYKDWHHGGRENILLCTDCRIHFKKYGELP [S14Y] to LKGYACRHCFTTTTKDWHHGGRENILLCTDCRIHFKKYGELP [S14T], the abundance fitness rises from -0.473 ± 0.09 to -0.226 ± 0.049.

LKGYACRHCFTTTRKDWHHGGRENILLCTDCRIHFKKYGELP [S14R] and LKGYACRHCFTTTSKDWHHKGRENILLCTDCRIHFKKYGELP [G20K] are within error of each other in abundance fitness: -0.451 ± 0.034 for the first, -0.379 ± 0.06 for the second.

LKGYACRHCFTTTSKDWHHIGRENILLCTDCRIHFKKYGELP [G20I] and LKGYACRHCFTTTSKDWHHSGRENILLCTDCRIHFKKYGELP [G20S] are within error of each other in abundance fitness: -0.151 ± 0.053 for the first, -0.212 ± 0.043 for the second.

LKGYACRHCFTTTSKDWHHAGRENILLCTDCRIHFKKYGELP [G20A] and LKGYACRHCFTTTSKDWHHTGRENILLCTDCRIHFKKYGELP [G20T] are within error of each other in abundance fitness: -0.16 ± 0.036 for the first, -0.292 ± 0.14 for the second.

LKGYACRHCFTTTSKDWHHVGRENILLCTDCRIHFKKYGELP [G20V] and LKGYACRHCFTTTSKDWHHQGRENILLCTDCRIHFKKYGELP [G20Q] are within error of each other in abundance fitness: -0.11 ± 0.035 for the first, -0.179 ± 0.059 for the second.

LKGYACRHCFTTTSKDWHHYGRENILLCTDCRIHFKKYGELP [G20Y] and LKGYACRHCFTTTSKDWHHEGRENILLCTDCRIHFKKYGELP [G20E] are within error of each other in abundance fitness: -0.422 ± 0.36 for the first, -0.066 ± 0.036 for the second.

Going from LKGYACRHCFTTTSKDWHHLGRENILLCTDCRIHFKKYGELP [G20L] to LKGYACRHCFTTTSKDWHHRGRENILLCTDCRIHFKKYGELP [G20R], the abundance fitness falls from -0.32 ± 0.056 to -0.45 ± 0.038.

Going from LKGYACRHCFTTTSKDWHHWGRENILLCTDCRIHFKKYGELP [G20W] to LKGYACRHCFTTTSKDWHHPGRENILLCTDCRIHFKKYGELP [G20P], the abundance fitness falls from -0.141 ± 0.051 to -0.375 ± 0.072.

Compared with LKGYACRHCFTTTSKDWHHMGRENILLCTDCRIHFKKYGELP [G20M], LKGYACRHCFTTTSKDWHHCGRENILLCTDCRIHFKKYGELP [G20C] is higher in abundance fitness: -0.205 ± 0.042 for the first, -0.091 ± 0.057 for the second.

First: LKGYACRHCFTTTSKDWHHHGRENILLCTDCRIHFKKYGELP [G20H]
Second: LKGYACRHCFTTTSKDWHHDGRENILLCTDCRIHFKKYGELP [G20D]
The abundance fitness of the first is lower: -0.203 ± 0.048 for the first, 0.097 ± 0.067 for the second.

Compared with LKGYACRHCFTTTSKDWPHGGRENILLCTDCRIHFKKYGELP [H18P], LKGYACRHCFTTTSKDWAHGGRENILLCTDCRIHFKKYGELP [H18A] is higher in abundance fitness: -0.333 ± 0.045 for the first, 0.09 ± 0.044 for the second.

LKGYACRHCFTTTSKDWYHGGRENILLCTDCRIHFKKYGELP [H18Y] and LKGYACRHCFTTTSKDWSHGGRENILLCTDCRIHFKKYGELP [H18S] are within error of each other in abundance fitness: -0.089 ± 0.1 for the first, 0.004 ± 0.038 for the second.

LKGYACRHCFTTTSKDWIHGGRENILLCTDCRIHFKKYGELP [H18I] and LKGYACRHCFTTTSKDWNHGGRENILLCTDCRIHFKKYGELP [H18N] are within error of each other in abundance fitness: -0.07 ± 0.047 for the first, -0.132 ± 0.051 for the second.

Compared with LKGYACRHCFTTTSKDWRHGGRENILLCTDCRIHFKKYGELP [H18R], LKGYACRHCFTTTSKDWKHGGRENILLCTDCRIHFKKYGELP [H18K] is higher in abundance fitness: -0.193 ± 0.044 for the first, 0.055 ± 0.046 for the second.

Going from LKGYACRHCFTTTSKDWWHGGRENILLCTDCRIHFKKYGELP [H18W] to LKGYACRHCFTTTSKDWLHGGRENILLCTDCRIHFKKYGELP [H18L], the abundance fitness rises from -0.21 ± 0.068 to -0.042 ± 0.044.

LKGYACRHCFTTTSKDWTHGGRENILLCTDCRIHFKKYGELP [H18T] and LKGYACRHCFTTTSKDWCHGGRENILLCTDCRIHFKKYGELP [H18C] are within error of each other in abundance fitness: -0.029 ± 0.041 for the first, -0.03 ± 0.055 for the second.

LKGYACRHCFTTTSKDWDHGGRENILLCTDCRIHFKKYGELP [H18D] and LKGYACRHCFTTTSKDWQHGGRENILLCTDCRIHFKKYGELP [H18Q] are within error of each other in abundance fitness: 0.115 ± 0.13 for the first, 0.09 ± 0.064 for the second.

LKGYACRHCFTTTSKDWFHGGRENILLCTDCRIHFKKYGELP [H18F] and LKGYACRHCFTTTSKDWGHGGRENILLCTDCRIHFKKYGELP [H18G] are within error of each other in abundance fitness: -0.005 ± 0.046 for the first, 0.057 ± 0.031 for the second.

LKGYACRHCFTTTSKDWHFGGRENILLCTDCRIHFKKYGELP [H19F] and LKGYACRHCFTTTSKDWHKGGRENILLCTDCRIHFKKYGELP [H19K] are within error of each other in abundance fitness: -0.064 ± 0.057 for the first, -0.047 ± 0.061 for the second.

Going from LKGYACRHCFTTTSKDWHTGGRENILLCTDCRIHFKKYGELP [H19T] to LKGYACRHCFTTTSKDWHDGGRENILLCTDCRIHFKKYGELP [H19D], the abundance fitness falls from 0.095 ± 0.042 to -0.225 ± 0.13.
